Experimental data as given in paper PMC10202959.

Assays:
Test in all cases: ELISA; plates coated with 100 nM ECM protein in PBS (1 h, 37 °C), blocked with 1% BSA in PBS-T; PDGF-BB or IL-1Ra variants at increasing concentrations in PBS-T with 0.1% BSA, 1 h at room temperature; detected with biotinylated antibodies; one site specific binding model; n = 3
[1] = target: human vitronectin (human) (UniProt P04004)
[2] = target: human plasma fibronectin (human)
human tenascin C (human) = human tenascin C (human) (UniProt P24821)
Sequence of human tenascin C (human) (P24821 23-2201): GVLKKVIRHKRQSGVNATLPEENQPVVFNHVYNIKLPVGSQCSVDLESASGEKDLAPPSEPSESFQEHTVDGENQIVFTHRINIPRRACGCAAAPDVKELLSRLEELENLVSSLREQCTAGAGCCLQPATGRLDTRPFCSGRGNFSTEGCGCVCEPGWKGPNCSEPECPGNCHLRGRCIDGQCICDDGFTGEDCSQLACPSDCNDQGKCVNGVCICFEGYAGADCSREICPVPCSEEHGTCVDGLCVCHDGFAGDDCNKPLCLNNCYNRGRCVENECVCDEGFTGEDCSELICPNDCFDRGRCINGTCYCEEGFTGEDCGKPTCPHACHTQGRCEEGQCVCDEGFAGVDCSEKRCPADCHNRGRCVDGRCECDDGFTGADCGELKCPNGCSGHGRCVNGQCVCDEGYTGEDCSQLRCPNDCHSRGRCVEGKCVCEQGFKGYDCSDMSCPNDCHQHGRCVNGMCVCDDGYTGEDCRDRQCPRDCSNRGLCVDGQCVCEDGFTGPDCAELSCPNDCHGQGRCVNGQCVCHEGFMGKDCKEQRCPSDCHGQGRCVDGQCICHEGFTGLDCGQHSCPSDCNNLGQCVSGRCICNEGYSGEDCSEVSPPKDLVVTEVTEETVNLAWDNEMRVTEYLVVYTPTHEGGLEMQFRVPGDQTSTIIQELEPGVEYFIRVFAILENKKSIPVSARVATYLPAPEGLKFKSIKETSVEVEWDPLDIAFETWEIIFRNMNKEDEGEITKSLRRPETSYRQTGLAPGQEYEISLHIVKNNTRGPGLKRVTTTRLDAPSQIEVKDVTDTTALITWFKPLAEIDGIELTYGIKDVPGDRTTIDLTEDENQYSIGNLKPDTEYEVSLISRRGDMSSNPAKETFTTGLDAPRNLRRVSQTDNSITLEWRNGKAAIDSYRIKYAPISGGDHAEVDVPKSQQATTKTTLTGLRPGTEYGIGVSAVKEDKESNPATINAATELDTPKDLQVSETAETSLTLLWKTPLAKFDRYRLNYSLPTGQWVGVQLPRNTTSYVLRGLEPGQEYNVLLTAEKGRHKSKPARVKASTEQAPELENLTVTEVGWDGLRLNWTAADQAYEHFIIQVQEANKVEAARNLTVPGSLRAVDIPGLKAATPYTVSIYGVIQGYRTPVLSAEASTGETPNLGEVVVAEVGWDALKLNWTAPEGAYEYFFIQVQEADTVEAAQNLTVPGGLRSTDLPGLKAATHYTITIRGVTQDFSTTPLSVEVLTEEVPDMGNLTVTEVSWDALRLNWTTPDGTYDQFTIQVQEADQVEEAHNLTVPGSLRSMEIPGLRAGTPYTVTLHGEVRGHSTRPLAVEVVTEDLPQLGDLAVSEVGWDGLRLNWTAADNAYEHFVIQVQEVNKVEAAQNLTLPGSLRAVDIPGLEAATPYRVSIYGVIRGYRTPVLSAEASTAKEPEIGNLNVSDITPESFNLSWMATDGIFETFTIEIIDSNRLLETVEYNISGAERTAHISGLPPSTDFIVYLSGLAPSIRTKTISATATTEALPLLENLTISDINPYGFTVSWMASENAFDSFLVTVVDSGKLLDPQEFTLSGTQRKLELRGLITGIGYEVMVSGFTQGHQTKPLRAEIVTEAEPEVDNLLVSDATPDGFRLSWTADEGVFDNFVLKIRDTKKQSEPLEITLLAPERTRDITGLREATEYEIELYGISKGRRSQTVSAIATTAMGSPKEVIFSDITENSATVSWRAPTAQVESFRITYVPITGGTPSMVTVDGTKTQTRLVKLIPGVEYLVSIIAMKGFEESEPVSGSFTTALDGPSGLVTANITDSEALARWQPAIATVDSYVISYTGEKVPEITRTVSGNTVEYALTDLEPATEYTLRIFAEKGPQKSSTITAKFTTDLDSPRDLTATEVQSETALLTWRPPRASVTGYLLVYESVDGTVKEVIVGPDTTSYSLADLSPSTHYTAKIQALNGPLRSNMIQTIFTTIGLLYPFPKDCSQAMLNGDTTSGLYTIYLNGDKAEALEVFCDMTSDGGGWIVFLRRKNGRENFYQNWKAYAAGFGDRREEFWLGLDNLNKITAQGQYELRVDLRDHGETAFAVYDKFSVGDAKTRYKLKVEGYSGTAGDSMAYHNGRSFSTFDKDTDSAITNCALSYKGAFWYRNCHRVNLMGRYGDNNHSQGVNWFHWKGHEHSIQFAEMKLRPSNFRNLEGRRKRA

Sequence of human vitronectin (human) (P04004 20-478): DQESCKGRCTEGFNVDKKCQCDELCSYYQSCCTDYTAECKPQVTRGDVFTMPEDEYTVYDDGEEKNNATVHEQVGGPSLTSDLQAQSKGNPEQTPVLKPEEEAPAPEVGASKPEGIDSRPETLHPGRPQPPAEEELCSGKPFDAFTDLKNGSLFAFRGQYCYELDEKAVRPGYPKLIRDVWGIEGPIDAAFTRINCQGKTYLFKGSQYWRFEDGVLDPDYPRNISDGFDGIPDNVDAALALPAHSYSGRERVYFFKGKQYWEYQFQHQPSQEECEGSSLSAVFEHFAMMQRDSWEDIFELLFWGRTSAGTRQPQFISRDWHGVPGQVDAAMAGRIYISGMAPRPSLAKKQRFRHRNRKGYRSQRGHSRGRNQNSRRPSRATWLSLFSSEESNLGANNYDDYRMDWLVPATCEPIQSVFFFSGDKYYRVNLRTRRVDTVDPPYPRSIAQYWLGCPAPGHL

| Substance | Kd [1] [nM] | Kd [2] [nM] | Kd (human tenascin C (human)) [nM] |
| --- | --- | --- | --- |
| AREG26-38/IL-1Ra | 1.9 | 16.5 | 18.6 |
| AREG26-38/PDGF-BB | 1.3 | 5.9 | 19.3 |
